Test [1] has as its target endogenous SET (mouse (endogenous in adult mouse brain slices)) (UniProt Q9EQU5). The test can be described thus: co-IP; lysates of adult mouse brain slices incubated 5 h 30 min with or without recombinant SET (4 μM); IP with polyclonal anti-SET (recognises endogenous and recombinant SET) and protein A Sepharose, overnight 4°C; Hepes 10 mM, NaCl 150 mM, CaCl2 2 mM, Triton X-100 1% pH 7.4; blot for total PP2A C subunit, then methyl-PP2A after stripping.

Test [2] deals with PP2A (total PP2A, detected with an anti-PP2A C subunit antibody) (mouse (endogenous in adult mouse brain slices)) (UniProt P63330).
Test [3] shares this target. The source holds these as a separate data set.

Experimental findings from publication PMC4086270 are described below.

UniProt P63330, sequence (P63330 whole entry): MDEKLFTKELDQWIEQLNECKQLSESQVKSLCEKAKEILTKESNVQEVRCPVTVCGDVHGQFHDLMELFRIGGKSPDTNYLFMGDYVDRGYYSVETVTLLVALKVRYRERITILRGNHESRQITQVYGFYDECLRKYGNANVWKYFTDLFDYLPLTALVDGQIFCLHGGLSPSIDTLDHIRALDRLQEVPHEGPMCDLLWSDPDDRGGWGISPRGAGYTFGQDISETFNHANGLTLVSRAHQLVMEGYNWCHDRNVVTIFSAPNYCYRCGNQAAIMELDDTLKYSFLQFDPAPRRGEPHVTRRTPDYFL
UniProt Q9EQU5, sequence (Q9EQU5 whole entry): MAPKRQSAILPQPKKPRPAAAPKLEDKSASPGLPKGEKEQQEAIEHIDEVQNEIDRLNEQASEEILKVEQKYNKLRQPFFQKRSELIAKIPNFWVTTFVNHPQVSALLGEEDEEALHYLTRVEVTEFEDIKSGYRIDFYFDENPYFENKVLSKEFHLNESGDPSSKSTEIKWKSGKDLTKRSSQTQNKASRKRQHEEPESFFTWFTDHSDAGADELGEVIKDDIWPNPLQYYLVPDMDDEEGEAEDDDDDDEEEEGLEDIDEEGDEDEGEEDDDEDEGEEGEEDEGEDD

Regarding “methylated PP2A (from UniProt P63330 1-309) (enzyme)”, the ratio of methyl-PP2A to total PP2A co-immunoprecipitated with SET in test [1] amounted to 2.18.

Consider “recombinant HA-tagged SET protein fused to the Penetratin vector (from UniProt Q01105 1-290) (natural protein)”, for which the PP2A activity (release of p-nitrophenol) on PP2A immunoprecipitated from brain slices containing internalized recombinant SET, percent of control in test [2] was 84 % of control. In test [3], the ratio of methyl-PP2A to total PP2A by western blotting of brain slice lysates after 5 h 30 min of recombinant SET internalization, percent of the control ratio (% of control ratio) was determined as 83.6.
